{"source": "patent US20210388087A1", "binders": {"B1": {"name": "H183/L072 VL N28Y (antibody, name in Kabat numbering, V domains shown)", "VH": "QVQLVESGGGLVQPGRSLRLSCAASGFTFSNAWMHWVRQAPGKGLEWVAQIKDKGNAYAAYYAPSVKGRFTISRDDSKNSIYLQMNSLKTEDTAVYYCHYVHYASASTVLPAFGVDAWGQGTTVTVSS", "VL": "DIVMTQSPLSLPVTPGEPASISCQASQELVHMYRNTYLHWYQQKPGQAPRLLIYKVSNRFPGVPDRFSGSGSGTDFTLKISRVEAEDVGVYYCAQGTSVPFTFGQGTKLEIK"}, "B2": {"name": "H183/L072 VL K50I (antibody, name in Kabat numbering, V domains shown)", "VH": "QVQLVESGGGLVQPGRSLRLSCAASGFTFSNAWMHWVRQAPGKGLEWVAQIKDKGNAYAAYYAPSVKGRFTISRDDSKNSIYLQMNSLKTEDTAVYYCHYVHYASASTVLPAFGVDAWGQGTTVTVSS", "VL": "DIVMTQSPLSLPVTPGEPASISCQASQELVHMNRNTYLHWYQQKPGQAPRLLIYIVSNRFPGVPDRFSGSGSGTDFTLKISRVEAEDVGVYYCAQGTSVPFTFGQGTKLEIK"}, "B3": {"name": "H183/L072 VL P95A (antibody, name in Kabat numbering, V domains shown)", "VH": "QVQLVESGGGLVQPGRSLRLSCAASGFTFSNAWMHWVRQAPGKGLEWVAQIKDKGNAYAAYYAPSVKGRFTISRDDSKNSIYLQMNSLKTEDTAVYYCHYVHYASASTVLPAFGVDAWGQGTTVTVSS", "VL": "DIVMTQSPLSLPVTPGEPASISCQASQELVHMNRNTYLHWYQQKPGQAPRLLIYKVSNRFPGVPDRFSGSGSGTDFTLKISRVEAEDVGVYYCAQGTSVAFTFGQGTKLEIK"}, "B4": {"name": "H183/L072 VL Q90I (antibody, name in Kabat numbering, V domains shown)", "VH": "QVQLVESGGGLVQPGRSLRLSCAASGFTFSNAWMHWVRQAPGKGLEWVAQIKDKGNAYAAYYAPSVKGRFTISRDDSKNSIYLQMNSLKTEDTAVYYCHYVHYASASTVLPAFGVDAWGQGTTVTVSS", "VL": "DIVMTQSPLSLPVTPGEPASISCQASQELVHMNRNTYLHWYQQKPGQAPRLLIYKVSNRFPGVPDRFSGSGSGTDFTLKISRVEAEDVGVYYCAIGTSVPFTFGQGTKLEIK"}, "B5": {"name": "H183/L072 VL G91L (antibody, name in Kabat numbering, V domains shown)", "VH": "QVQLVESGGGLVQPGRSLRLSCAASGFTFSNAWMHWVRQAPGKGLEWVAQIKDKGNAYAAYYAPSVKGRFTISRDDSKNSIYLQMNSLKTEDTAVYYCHYVHYASASTVLPAFGVDAWGQGTTVTVSS", "VL": "DIVMTQSPLSLPVTPGEPASISCQASQELVHMNRNTYLHWYQQKPGQAPRLLIYKVSNRFPGVPDRFSGSGSGTDFTLKISRVEAEDVGVYYCAQLTSVPFTFGQGTKLEIK"}, "B6": {"name": "H183/L072 VL K50A (antibody, name in Kabat numbering, V domains shown)", "VH": "QVQLVESGGGLVQPGRSLRLSCAASGFTFSNAWMHWVRQAPGKGLEWVAQIKDKGNAYAAYYAPSVKGRFTISRDDSKNSIYLQMNSLKTEDTAVYYCHYVHYASASTVLPAFGVDAWGQGTTVTVSS", "VL": "DIVMTQSPLSLPVTPGEPASISCQASQELVHMNRNTYLHWYQQKPGQAPRLLIYAVSNRFPGVPDRFSGSGSGTDFTLKISRVEAEDVGVYYCAQGTSVPFTFGQGTKLEIK"}, "B7": {"name": "H183/L072 VL G91A (antibody, name in Kabat numbering, V domains shown)", "VH": "QVQLVESGGGLVQPGRSLRLSCAASGFTFSNAWMHWVRQAPGKGLEWVAQIKDKGNAYAAYYAPSVKGRFTISRDDSKNSIYLQMNSLKTEDTAVYYCHYVHYASASTVLPAFGVDAWGQGTTVTVSS", "VL": "DIVMTQSPLSLPVTPGEPASISCQASQELVHMNRNTYLHWYQQKPGQAPRLLIYKVSNRFPGVPDRFSGSGSGTDFTLKISRVEAEDVGVYYCAQATSVPFTFGQGTKLEIK"}, "B8": {"name": "H183/L072 VL L33Y (antibody, name in Kabat numbering, V domains shown)", "VH": "QVQLVESGGGLVQPGRSLRLSCAASGFTFSNAWMHWVRQAPGKGLEWVAQIKDKGNAYAAYYAPSVKGRFTISRDDSKNSIYLQMNSLKTEDTAVYYCHYVHYASASTVLPAFGVDAWGQGTTVTVSS", "VL": "DIVMTQSPLSLPVTPGEPASISCQASQELVHMNRNTYYHWYQQKPGQAPRLLIYKVSNRFPGVPDRFSGSGSGTDFTLKISRVEAEDVGVYYCAQGTSVPFTFGQGTKLEIK"}, "B9": {"name": "H183/L072 VL Q90A (antibody, name in Kabat numbering, V domains shown)", "VH": "QVQLVESGGGLVQPGRSLRLSCAASGFTFSNAWMHWVRQAPGKGLEWVAQIKDKGNAYAAYYAPSVKGRFTISRDDSKNSIYLQMNSLKTEDTAVYYCHYVHYASASTVLPAFGVDAWGQGTTVTVSS", "VL": "DIVMTQSPLSLPVTPGEPASISCQASQELVHMNRNTYLHWYQQKPGQAPRLLIYKVSNRFPGVPDRFSGSGSGTDFTLKISRVEAEDVGVYYCAAGTSVPFTFGQGTKLEIK"}, "B10": {"name": "H183/L072 VL A89I (antibody, name in Kabat numbering, V domains shown)", "VH": "QVQLVESGGGLVQPGRSLRLSCAASGFTFSNAWMHWVRQAPGKGLEWVAQIKDKGNAYAAYYAPSVKGRFTISRDDSKNSIYLQMNSLKTEDTAVYYCHYVHYASASTVLPAFGVDAWGQGTTVTVSS", "VL": "DIVMTQSPLSLPVTPGEPASISCQASQELVHMNRNTYLHWYQQKPGQAPRLLIYKVSNRFPGVPDRFSGSGSGTDFTLKISRVEAEDVGVYYCIQGTSVPFTFGQGTKLEIK"}, "B11": {"name": "H183/L072 VL A89L (antibody, name in Kabat numbering, V domains shown)", "VH": "QVQLVESGGGLVQPGRSLRLSCAASGFTFSNAWMHWVRQAPGKGLEWVAQIKDKGNAYAAYYAPSVKGRFTISRDDSKNSIYLQMNSLKTEDTAVYYCHYVHYASASTVLPAFGVDAWGQGTTVTVSS", "VL": "DIVMTQSPLSLPVTPGEPASISCQASQELVHMNRNTYLHWYQQKPGQAPRLLIYKVSNRFPGVPDRFSGSGSGTDFTLKISRVEAEDVGVYYCLQGTSVPFTFGQGTKLEIK"}, "B12": {"name": "H183/L072 VL G91I (antibody, name in Kabat numbering, V domains shown)", "VH": "QVQLVESGGGLVQPGRSLRLSCAASGFTFSNAWMHWVRQAPGKGLEWVAQIKDKGNAYAAYYAPSVKGRFTISRDDSKNSIYLQMNSLKTEDTAVYYCHYVHYASASTVLPAFGVDAWGQGTTVTVSS", "VL": "DIVMTQSPLSLPVTPGEPASISCQASQELVHMNRNTYLHWYQQKPGQAPRLLIYKVSNRFPGVPDRFSGSGSGTDFTLKISRVEAEDVGVYYCAQITSVPFTFGQGTKLEIK"}, "B13": {"name": "H183/L072 VL N53I (antibody, name in Kabat numbering, V domains shown)", "VH": "QVQLVESGGGLVQPGRSLRLSCAASGFTFSNAWMHWVRQAPGKGLEWVAQIKDKGNAYAAYYAPSVKGRFTISRDDSKNSIYLQMNSLKTEDTAVYYCHYVHYASASTVLPAFGVDAWGQGTTVTVSS", "VL": "DIVMTQSPLSLPVTPGEPASISCQASQELVHMNRNTYLHWYQQKPGQAPRLLIYKVSIRFPGVPDRFSGSGSGTDFTLKISRVEAEDVGVYYCAQGTSVPFTFGQGTKLEIK"}, "B14": {"name": "H183/L072 VL P95L (antibody, name in Kabat numbering, V domains shown)", "VH": "QVQLVESGGGLVQPGRSLRLSCAASGFTFSNAWMHWVRQAPGKGLEWVAQIKDKGNAYAAYYAPSVKGRFTISRDDSKNSIYLQMNSLKTEDTAVYYCHYVHYASASTVLPAFGVDAWGQGTTVTVSS", "VL": "DIVMTQSPLSLPVTPGEPASISCQASQELVHMNRNTYLHWYQQKPGQAPRLLIYKVSNRFPGVPDRFSGSGSGTDFTLKISRVEAEDVGVYYCAQGTSVLFTFGQGTKLEIK"}, "B15": {"name": "H183/L072 VL K50L (antibody, name in Kabat numbering, V domains shown)", "VH": "QVQLVESGGGLVQPGRSLRLSCAASGFTFSNAWMHWVRQAPGKGLEWVAQIKDKGNAYAAYYAPSVKGRFTISRDDSKNSIYLQMNSLKTEDTAVYYCHYVHYASASTVLPAFGVDAWGQGTTVTVSS", "VL": "DIVMTQSPLSLPVTPGEPASISCQASQELVHMNRNTYLHWYQQKPGQAPRLLIYLVSNRFPGVPDRFSGSGSGTDFTLKISRVEAEDVGVYYCAQGTSVPFTFGQGTKLEIK"}, "B16": {"name": "H183/L072 VL Q90L (antibody, name in Kabat numbering, V domains shown)", "VH": "QVQLVESGGGLVQPGRSLRLSCAASGFTFSNAWMHWVRQAPGKGLEWVAQIKDKGNAYAAYYAPSVKGRFTISRDDSKNSIYLQMNSLKTEDTAVYYCHYVHYASASTVLPAFGVDAWGQGTTVTVSS", "VL": "DIVMTQSPLSLPVTPGEPASISCQASQELVHMNRNTYLHWYQQKPGQAPRLLIYKVSNRFPGVPDRFSGSGSGTDFTLKISRVEAEDVGVYYCALGTSVPFTFGQGTKLEIK"}, "B17": {"name": "H183/L072 VL F96I (antibody, name in Kabat numbering, V domains shown)", "VH": "QVQLVESGGGLVQPGRSLRLSCAASGFTFSNAWMHWVRQAPGKGLEWVAQIKDKGNAYAAYYAPSVKGRFTISRDDSKNSIYLQMNSLKTEDTAVYYCHYVHYASASTVLPAFGVDAWGQGTTVTVSS", "VL": "DIVMTQSPLSLPVTPGEPASISCQASQELVHMNRNTYLHWYQQKPGQAPRLLIYKVSNRFPGVPDRFSGSGSGTDFTLKISRVEAEDVGVYYCAQGTSVPITFGQGTKLEIK"}, "B18": {"name": "H183/L072 VL T31Y (antibody, name in Kabat numbering, V domains shown)", "VH": "QVQLVESGGGLVQPGRSLRLSCAASGFTFSNAWMHWVRQAPGKGLEWVAQIKDKGNAYAAYYAPSVKGRFTISRDDSKNSIYLQMNSLKTEDTAVYYCHYVHYASASTVLPAFGVDAWGQGTTVTVSS", "VL": "DIVMTQSPLSLPVTPGEPASISCQASQELVHMNRNYYLHWYQQKPGQAPRLLIYKVSNRFPGVPDRFSGSGSGTDFTLKISRVEAEDVGVYYCAQGTSVPFTFGQGTKLEIK"}, "B19": {"name": "H183/L072 VL T92I (antibody, name in Kabat numbering, V domains shown)", "VH": "QVQLVESGGGLVQPGRSLRLSCAASGFTFSNAWMHWVRQAPGKGLEWVAQIKDKGNAYAAYYAPSVKGRFTISRDDSKNSIYLQMNSLKTEDTAVYYCHYVHYASASTVLPAFGVDAWGQGTTVTVSS", "VL": "DIVMTQSPLSLPVTPGEPASISCQASQELVHMNRNTYLHWYQQKPGQAPRLLIYKVSNRFPGVPDRFSGSGSGTDFTLKISRVEAEDVGVYYCAQGISVPFTFGQGTKLEIK"}, "B20": {"name": "H183/L072 VL P95I (antibody, name in Kabat numbering, V domains shown)", "VH": "QVQLVESGGGLVQPGRSLRLSCAASGFTFSNAWMHWVRQAPGKGLEWVAQIKDKGNAYAAYYAPSVKGRFTISRDDSKNSIYLQMNSLKTEDTAVYYCHYVHYASASTVLPAFGVDAWGQGTTVTVSS", "VL": "DIVMTQSPLSLPVTPGEPASISCQASQELVHMNRNTYLHWYQQKPGQAPRLLIYKVSNRFPGVPDRFSGSGSGTDFTLKISRVEAEDVGVYYCAQGTSVIFTFGQGTKLEIK"}, "B21": {"name": "H183/L072 VL F96A (antibody, name in Kabat numbering, V domains shown)", "VH": "QVQLVESGGGLVQPGRSLRLSCAASGFTFSNAWMHWVRQAPGKGLEWVAQIKDKGNAYAAYYAPSVKGRFTISRDDSKNSIYLQMNSLKTEDTAVYYCHYVHYASASTVLPAFGVDAWGQGTTVTVSS", "VL": "DIVMTQSPLSLPVTPGEPASISCQASQELVHMNRNTYLHWYQQKPGQAPRLLIYKVSNRFPGVPDRFSGSGSGTDFTLKISRVEAEDVGVYYCAQGTSVPATFGQGTKLEIK"}}}
{"biological_target": "Human CD3eg linker (human)", "sequence (chain, as listed by the source limits assumed)": "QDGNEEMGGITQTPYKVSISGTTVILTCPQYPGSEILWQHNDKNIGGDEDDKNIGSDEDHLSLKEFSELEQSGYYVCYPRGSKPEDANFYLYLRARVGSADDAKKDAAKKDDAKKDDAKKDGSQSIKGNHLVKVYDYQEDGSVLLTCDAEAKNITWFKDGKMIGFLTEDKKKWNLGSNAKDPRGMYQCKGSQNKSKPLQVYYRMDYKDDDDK", "assay": "SPR; fold vs parent H183/L072", "units": {"fold change of affinity": "fold"}}
{"binder": "B1", "fold change of affinity": 0}
{"binder": "B2", "fold change of affinity": 0}
{"binder": "B3", "fold change of affinity": 0}
{"binder": "B4", "fold change of affinity": 0}
{"binder": "B5", "fold change of affinity": 0}
{"binder": "B6", "fold change of affinity": 0}
{"binder": "B7", "fold change of affinity": 0}
{"binder": "B8", "fold change of affinity": 0}
{"binder": "B9", "fold change of affinity": 0}
{"binder": "B10", "fold change of affinity": 0}
{"binder": "B11", "fold change of affinity": 0}
{"binder": "B12", "fold change of affinity": 0}
{"binder": "B13", "fold change of affinity": 0}
{"binder": "B14", "fold change of affinity": 0}
{"binder": "B15", "fold change of affinity": 0}
{"binder": "B16", "fold change of affinity": 0}
{"binder": "B17", "fold change of affinity": 0}
{"binder": "B18", "fold change of affinity": 0}
{"binder": "B19", "fold change of affinity": 0}
{"binder": "B20", "fold change of affinity": 0}
{"binder": "B21", "fold change of affinity": 0}
